Laboratory results published in paper PMC4045772 (PLoS ONE, 2014).

Target: biotinylated Cul3/Rbx1 (UniProt Q13618 1-768; P62877 1-108, biotin (BirA biotinylation of the Avi tag))
Assay: AlphaScreen or HTRF; 30 nM His-tagged Keap1 (35-235) incubated with CDDO or DMSO 2.5 h at 37°C, then 30 nM biotinylated Cul3/Rbx1 1.5 h at room temperature; nickel chelate donor beads and streptavidin acceptor beads
Conditions: both partners purified

Chain of biotinylated Cul3/Rbx1 (Q13618 whole entry, chain 1 of 2): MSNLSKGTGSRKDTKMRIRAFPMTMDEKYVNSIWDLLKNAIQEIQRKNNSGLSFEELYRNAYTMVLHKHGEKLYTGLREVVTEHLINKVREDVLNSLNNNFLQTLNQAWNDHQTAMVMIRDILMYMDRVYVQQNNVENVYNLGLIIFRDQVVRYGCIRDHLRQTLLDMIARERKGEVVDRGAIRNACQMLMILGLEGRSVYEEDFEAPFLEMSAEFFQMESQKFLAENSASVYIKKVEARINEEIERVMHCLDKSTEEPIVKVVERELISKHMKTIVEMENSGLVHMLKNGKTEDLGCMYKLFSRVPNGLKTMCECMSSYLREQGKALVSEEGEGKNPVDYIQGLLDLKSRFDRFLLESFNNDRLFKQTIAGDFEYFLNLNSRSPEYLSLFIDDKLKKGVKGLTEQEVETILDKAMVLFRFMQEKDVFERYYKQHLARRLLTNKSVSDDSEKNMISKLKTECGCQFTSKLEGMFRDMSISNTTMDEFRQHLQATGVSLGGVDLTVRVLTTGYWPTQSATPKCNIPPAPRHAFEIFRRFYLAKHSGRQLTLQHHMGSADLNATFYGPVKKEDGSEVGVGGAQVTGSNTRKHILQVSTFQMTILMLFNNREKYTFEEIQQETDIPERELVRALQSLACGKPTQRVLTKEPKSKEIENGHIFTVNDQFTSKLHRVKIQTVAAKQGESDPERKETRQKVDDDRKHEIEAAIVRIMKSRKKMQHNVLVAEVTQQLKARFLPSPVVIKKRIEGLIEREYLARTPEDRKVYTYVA
Chain of biotinylated Cul3/Rbx1 (P62877 whole entry, chain 2 of 2): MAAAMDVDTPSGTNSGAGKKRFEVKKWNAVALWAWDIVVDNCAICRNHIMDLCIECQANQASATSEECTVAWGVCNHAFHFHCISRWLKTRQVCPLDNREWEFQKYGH

B1: Keap1 BTB with the first ~50 residues of the BACK domain (residues 35-235), C151S (domain or fragment, human, UniProt Q14145 35-235, looked up)
chain: STECKAEVTPSQHGNRTFSYTLEDHTKQAFGIMNELRLSQQLCDVTLQVKYQDAPAAQFMAHKVVLASSSPVFKAMFTNGLREQGMEVVSIEGIHPKVMERLIEFAYTASISMGEKSVLHVMNGAVMYQIDSVVRACSDFLVQQLDPSNAIGIANFAEQIGCVELHQRAREYIYMHFGEVAKQEEFFNLSHCQLVTLISRD
Does B1 bind?
Result: binds
